Test results from the supplement of paper PMC10598134.
± gives the standard deviation.

Assay: collision cross section of modified peptide (TIMS, N2, iRT-aligned); higher = larger / more extended gas-phase ion
How it was run: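 Collision cross section values rest on the Mason-Schamp equation applied to calibrated, run-aligned mobility data from synthetic peptides. Mobility (1/K0) was calibrated with three reference ions and aligned per run to the median iRT peptide deviation, and 1–3 technical replicates of the most abundant feature per charge state were averaged. Data came from a timsTOF Pro/HT in dda-PASEF mode (nitrogen, ~2.4 mbar) after a 120-min nanoflow C18 gradient at 60 °C.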

[1] = charge state: 2, modification: hydroxyisobutyryl
[2] = charge state: 3, modification: hydroxyisobutyryl
[3] = charge state: 2, modification: Phospho (Y)
[4] = charge state: 2, modification: Acetyl (K)
[5] = charge state: 2, modification: Malonyl
[6] = charge state: 2, modification: HexNAc (ST)
[7] = charge state: 2, modification: Biotin
[8] = charge state: 2, modification: Glutarylation
[9] = charge state: 3, modification: HexNAc (ST)
[10] = charge state: 2, modification: GlyGly (K)
[11] = charge state: 2, modification: Crotonyl
[12] = charge state: 3, modification: Crotonyl
[13] = charge state: 2, modification: Formyl
[14] = charge state: 2, modification: Trimethyl (K)
[15] = charge state: 3, modification: Trimethyl (K)
[16] = charge state: 2, modification: Succinyl
[17] = charge state: 2, modification: Hydroxyproline
[18] = charge state: 3, modification: Methyl (R)
[19] = charge state: 2, modification: Dimethyl (K)
[20] = charge state: 3, modification: Dimethyl (K)
[21] = charge state: 3, modification: GlyGly (K)
[22] = charge state: 2, modification: Nitro (Y)
[23] = charge state: 3, modification: Hydroxyproline
[24] = charge state: 3, modification: Methyl (K)
[25] = charge state: 2, modification: Methyl (K)
[26] = charge state: 2, modification: Butyryl

GTITVSAQELKDNR [_GTITVSAQELK(hydroxyisobutyryl)DNR_]
collision cross section [1]: 423.58 ± 0.3 Å² | collision cross section [2]: 485.27 ± 2.8 Å²

GDYDLNAVR [_GDY(Phospho (Y))DLNAVR_]
collision cross section [3]: 348.87 ± 0.066 Å²

VLTANSNPSSPSAAKR [_VLTANSNPSSPSAAK(hydroxyisobutyryl)R_]
collision cross section [1]: 434.9 ± 0.8 Å² | collision cross section [2]: 533.81 ± 2 Å²

TPNLYIYSKK [_TPNLYIYSK(Acetyl (K))K_]
collision cross section [4]: 385.54 ± 0.92 Å²

VNVEAPDVNLEGLGGKLK [_VNVEAPDVNLEGLGGK(Malonyl)LK_]
collision cross section [5]: 463.09 ± 1.4 Å²

AQPSASLGVGYR [_AQPSAS(HexNAc (ST))LGVGYR_]
collision cross section [6]: 394.91 ± 0.63 Å²

IGNSYFKEEK [_IGNSYFK(Biotin)EEK_]
collision cross section [7]: 398.98 Å²

LGNDFHTNKR [_LGNDFHTNK(hydroxyisobutyryl)R_]
collision cross section [1]: 382.96 ± 0.86 Å² | collision cross section [2]: 448.25 ± 2.7 Å²

VGVEVPDVNIEGPEGKLK [_VGVEVPDVNIEGPEGK(Gluratylation)LK_]
collision cross section [8]: 461.98 ± 1.5 Å² | collision cross section (charge state: 3, modification: Glutarylation): 531 ± 29 Å²

ELANFDPSRPGPPSGR [_ELANFDPS(HexNAc (ST))RPGPPSGR_]
collision cross section [9]: 503.12 ± 0.18 Å²

GADFLVTEVENGGSLGSKK [_GADFLVTEVENGGSLGSK(GlyGly (K))K_]
collision cross section [10]: 505.48 Å²

AAQASDLEKIHLDEK [_AAQASDLEK(Crotonyl)IHLDEK_]
collision cross section [11]: 464.23 ± 0.82 Å² | collision cross section [12]: 499.02 ± 2.2 Å²

DFSLTSSSQTPGATK [_DFS(HexNAc (ST))LTSSSQTPGATK_]
collision cross section [6]: 426.98 ± 0.62 Å² | collision cross section [9]: 516.25 Å²

SLFFGGKGAPLQR [_SLFFGGK(Formyl)GAPLQR_]
collision cross section [13]: 399.67 ± 0.55 Å²

ANAIGRGAK [_ANAIGR(Methyl (R))GAK_]
collision cross section (charge state: 2, modification: Methyl (R)): 322.43 ± 1.8 Å²

DYSAPVNFISAGLKK [_DYSAPVNFISAGLK(Trimethyl (K))K_]
collision cross section [14]: 463.71 ± 1 Å² | collision cross section [15]: 523.24 ± 1.8 Å²

IQTVPASHLQQGTASGSSK [_IQTVPASHLQQGTAS(HexNAc (ST))GSSK_]
collision cross section [9]: 510.18 ± 0.18 Å²

DYSSGFGGKYGVQADR [_DYSSGFGGK(Succinyl)YGVQADR_]
collision cross section [16]: 438.99 ± 0.83 Å²

GFPGAPGLPGLK [_GFPGAP(Hydroxyproline)GLPGLK_]
collision cross section [17]: 358.41 ± 0.79 Å²

GAEKTEVAEPR [_GAEK(Malonyl)TEVAEPR_]
collision cross section [5]: 372.62 ± 0.63 Å²

FSAYIKNSNPALNDNLEK [_FSAYIK(hydroxyisobutyryl)NSNPALNDNLEK_]
collision cross section [1]: 489.27 ± 0.86 Å² | collision cross section [2]: 551.92 ± 1.1 Å²

GRGVGSPEPGPTAPYLGR [_GR(Methyl (R))GVGSPEPGPTAPYLGR_]
collision cross section [18]: 520.34 ± 0.91 Å²

DLGKFQVATDALK [_DLGK(Dimethyl (K))FQVATDALK_]
collision cross section [19]: 400.58 ± 0.77 Å² | collision cross section [20]: 478.59 ± 14 Å²

IVFSGNLFQHQEDSKK [_IVFSGNLFQHQEDSK(Succinyl)K_]
collision cross section [16]: 493.41 ± 1 Å² | collision cross section (charge state: 3, modification: Succinyl): 524.55 ± 2 Å²

DLSTVEALQNLKNLK [_DLSTVEALQNLK(GlyGly (K))NLK_]
collision cross section [10]: 473.91 ± 4.8 Å² | collision cross section [21]: 514.39 ± 5.7 Å²

SKLLFSNTAAQK [_SK(Dimethyl (K))LLFSNTAAQK_]
collision cross section [19]: 389.15 Å²

IINEPTAAAIAYGLDKK [_IINEPTAAAIAYGLDK(Formyl)K_]
collision cross section [13]: 458.24 ± 1.2 Å² | collision cross section (charge state: 3, modification: Formyl): 548.84 ± 1.7 Å²

PRTPTAPAVNLAGAR [_PR(Methyl (R))TPTAPAVNLAGAR_]
collision cross section [18]: 486.43 ± 2.3 Å²

VFLDCCNYITELR [_VFLDCCNY(Nitro (Y))ITELR_]
collision cross section [22]: 448.56 ± 0.53 Å²

ANLEKAQAELVGTADEATR [_ANLEK(Crotonyl)AQAELVGTADEATR_]
collision cross section [11]: 478.55 ± 1.5 Å² | collision cross section [12]: 577.75 ± 0.5 Å²

TPNLYIYSKK [_TPNLYIYSK(Trimethyl (K))K_]
collision cross section [14]: 381.37 ± 0.61 Å² | collision cross section [15]: 442.31 Å²

VGLQVVAVKAPGFGDNR [_VGLQVVAVK(Trimethyl (K))APGFGDNR_]
collision cross section [14]: 473 Å² | collision cross section [15]: 497.24 ± 1.6 Å²

YEEIVKEVSTYIK [_YEEIVK(GlyGly (K))EVSTYIK_]
collision cross section [10]: 459.86 ± 0.94 Å² | collision cross section [21]: 512.47 ± 1.1 Å²

DAEAAEATAEGALKAEK [_DAEAAEATAEGALK(Acetyl (K))AEK_]
collision cross section [4]: 451.64 ± 19 Å² | collision cross section (charge state: 3, modification: Acetyl (K)): 539.19 ± 1.8 Å²

LQEKVESAQSEQK [_LQEK(Dimethyl (K))VESAQSEQK_]
collision cross section [19]: 412.95 ± 1.6 Å² | collision cross section [20]: 455.71 ± 2.1 Å²

AAINQKLIETGER [_AAINQK(Crotonyl)LIETGER_]
collision cross section [11]: 409.27 ± 0.81 Å²

GFPGIQGRK [_GFP(Hydroxyproline)GIQGRK_]
collision cross section [17]: 339.07 Å² | collision cross section [23]: 407.07 Å²

SPPLPEHQKIPCNSAEPK [_SPPLPEHQK(Methyl (K))IPCNSAEPK_]
collision cross section [24]: 546.75 Å²

THLGEALAPLSK [_THLGEALAPLS(HexNAc (ST))K_]
collision cross section [6]: 397.68 ± 0.13 Å² | collision cross section [9]: 475.05 ± 25 Å²

SSGPGGQNVNKVNSK [_SSGPGGQNVNK(hydroxyisobutyryl)VNSK_]
collision cross section [1]: 407.53 ± 1.1 Å² | collision cross section [2]: 447.88 ± 1.1 Å²

ILDLKTGTVK [_ILDLK(Methyl (K))TGTVK_]
collision cross section [25]: 356.44 ± 1 Å²

GHYTIGK [_GHY(Phospho (Y))TIGK_]
collision cross section [3]: 330.16 ± 0.068 Å²

LLEQKTQESQK [_LLEQK(Gluratylation)TQESQK_]
collision cross section [8]: 402.96 ± 0.5 Å²

YADLTEDQLPSCESLK [_Y(Nitro (Y))ADLTEDQLPSCESLK_]
collision cross section [22]: 442.66 ± 0.55 Å²

DVNAAIAAIKTK [_DVNAAIAAIK(Methyl (K))TK_]
collision cross section [25]: 392.53 ± 0.95 Å² | collision cross section [24]: 462.62 ± 2.7 Å²

AAINQKLIETGER [_AAINQK(Malonyl)LIETGER_]
collision cross section [5]: 404.84 ± 0.034 Å² | collision cross section (charge state: 3, modification: Malonyl): 473.19 Å²

VNVEAPDVNLEGLGGKLK [_VNVEAPDVNLEGLGGK(Dimethyl (K))LK_]
collision cross section [19]: 464.65 Å² | collision cross section [20]: 539.12 ± 0.61 Å²

LGPNDQYK [_LGPNDQY(Phospho (Y))K_]
collision cross section [3]: 336.82 ± 0.067 Å²

KYEEIDNAPEER [_K(Trimethyl (K))YEEIDNAPEER_]
collision cross section [14]: 405.59 ± 0.61 Å² | collision cross section [15]: 490.14 ± 2.4 Å²

VNALKNLQVK [_VNALK(Butyryl)NLQVK_]
collision cross section [26]: 377.18 ± 0.8 Å²

ALASIDSKLNQAK [_ALASIDSK(Acetyl (K))LNQAK_]
collision cross section [4]: 399.37 ± 2 Å²

SDSGKPYYYNSQTK [_SDSGK(GlyGly (K))PYYYNSQTK_]
collision cross section [10]: 428.35 ± 1.4 Å² | collision cross section [21]: 476.2 ± 1.7 Å²

TQSFSLQER [_T(HexNAc (ST))QSFSLQER_]
collision cross section [6]: 373.04 ± 0.83 Å²

AIEINPDSAQPYK [_AIEINPDSAQPY(Phospho (Y))K_]
collision cross section [3]: 402.87 ± 0.061 Å²

SITHSTVGSKGEK [_SITHSTVGSK(Butyryl)GEK_]
collision cross section [26]: 396.1 ± 0.79 Å² | collision cross section (charge state: 3, modification: Butyryl): 440.88 ± 2.8 Å²

LQIASDENYK [_LQIASDENY(Phospho (Y))K_]
collision cross section [3]: 374.64 ± 0.77 Å²

PANEKATDDYHYEK [_PANEK(Trimethyl (K))ATDDYHYEK_]
collision cross section [15]: 499.05 Å²

SKHLQEQLNELK [_SK(Crotonyl)HLQEQLNELK_]
collision cross section [11]: 421.79 ± 0.28 Å² | collision cross section [12]: 491.86 ± 3.7 Å²

VQFAPEKPGPQPSAETTR [_VQFAPEKPGP(Hydroxyproline)QPSAETTR_]
collision cross section [23]: 515.21 ± 1.2 Å²

VLTANSNPSSPSAAKR [_VLTANSNPSSPSAAK(GlyGly (K))R_]
collision cross section [10]: 445.95 ± 0.95 Å² | collision cross section [21]: 511.93 ± 0.35 Å²

VETTVTSLKTK [_VETTVTSLK(hydroxyisobutyryl)TK_]
collision cross section [1]: 389.83 ± 0.81 Å² | collision cross section [2]: 450.94 ± 1.9 Å²

LAEQEAHYAVR [_LAEQEAHY(Phospho (Y))AVR_]
collision cross section [3]: 408.57 ± 0.76 Å² | collision cross section (charge state: 3, modification: Phospho (Y)): 482.98 ± 0.1 Å²

IQTKAGEATVK [_IQTK(GlyGly (K))AGEATVK_]
collision cross section [10]: 373.63 ± 0.56 Å² | collision cross section [21]: 455.83 Å²

GHYTIGK [_GHY(Nitro (Y))TIGK_]
collision cross section [22]: 323.5 ± 0.72 Å²

SGFGKFER [_SGFGK(Biotin)FER_]
collision cross section [7]: 352.97 Å²

LEQVEKELLR [_LEQVEK(hydroxyisobutyryl)ELLR_]
collision cross section [1]: 394.74 ± 0.29 Å²

VYIASSSGSTAIKK [_VYIASSSGSTAIK(hydroxyisobutyryl)K_]
collision cross section [1]: 417.04 ± 1.1 Å² | collision cross section [2]: 511.39 ± 2 Å²
